From patent US20180282422A1 (DINGFU BIOTARGET, published 2018)
Numbering of substitutions follows the chain as printed. Each block holds one binder with its values, some of them ahead of it.

Columns and labels:
[1] = biological target: T1, hOX40-EGFP on HEK293 cells (human, UniProt P43489 29-277); experiment: flow cytometry on transfected HEK293 cells, anti-hIg-PE
T1 construct: EGFP fusion on transfected HEK293 cells; not shown: enhanced green fluorescent protein (EGFP), UniProt C5MKY7
T1 sequence (looked up): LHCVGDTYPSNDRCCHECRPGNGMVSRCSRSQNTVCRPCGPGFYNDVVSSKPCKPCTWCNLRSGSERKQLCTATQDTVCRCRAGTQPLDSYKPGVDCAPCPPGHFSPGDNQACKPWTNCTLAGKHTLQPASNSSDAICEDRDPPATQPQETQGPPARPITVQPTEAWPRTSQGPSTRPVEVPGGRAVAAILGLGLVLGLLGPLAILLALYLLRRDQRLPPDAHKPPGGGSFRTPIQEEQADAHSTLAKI
Description: (§1) HEK293 cells expressing hCD137-EGFP, hOX40-EGFP, hCD27-EGFP and hGITR-EGFP constructed in Example 1 were resuspended in 0.5% PBS-BSA Buffer and anti-hCD137 C2scFv and C14 scFv protein were added, the negative control was hIgG Fe protein, then the mixture was incubated on ice for 20 min. After washing, secondary antibody anti-hIg-PE (eBioscience) was added and was incubated on ice for 20 min. After washing, the cells were resuspended in 500 μL of 0.5% PBS-BSA Buffer and detected by flow cytometry.
(§2) HEK293 cells expressing hCD137-EGFP, hOX40-EGFP, hCD27-EGFP and hGITR-EGFP constructed in Example 1 were resuspended in 0.5% PBS-BSA Buffer and anti-hCD137 C14 mAb protein was added, the negative control was hIgG Fc protein, then the mixture was incubated on ice for 20 min. After washing, a secondary antibody anti-hlg-PE (eBioscience) was added and incubated on ice for 20 min. After washing, the cells were resuspended in 500 μL 0.5% PBS-BSA Buffer and detected by flow cytometry.

[2] = biological target: T2, hCD27-EGFP on HEK293 cells (human, UniProt P26842 20-260); experiment: as above
T2 construct: EGFP fusion on transfected HEK293 cells; not shown: enhanced green fluorescent protein (EGFP), UniProt C5MKY7
T2 sequence (looked up): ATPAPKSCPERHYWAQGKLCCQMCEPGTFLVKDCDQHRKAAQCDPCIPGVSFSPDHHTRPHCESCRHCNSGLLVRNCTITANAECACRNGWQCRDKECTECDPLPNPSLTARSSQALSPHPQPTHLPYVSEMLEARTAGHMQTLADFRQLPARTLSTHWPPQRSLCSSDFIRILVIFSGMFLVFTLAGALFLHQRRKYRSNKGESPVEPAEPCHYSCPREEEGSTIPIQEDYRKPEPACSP
Description: as §1, §2

[3] = biological target: T3, hGITR-EGFP on HEK293 cells (human, UniProt Q9Y5U5 26-241); experiment: as above
T3 construct: EGFP fusion on transfected HEK293 cells; not shown: enhanced green fluorescent protein (EGFP), UniProt C5MKY7
T3 sequence (looked up): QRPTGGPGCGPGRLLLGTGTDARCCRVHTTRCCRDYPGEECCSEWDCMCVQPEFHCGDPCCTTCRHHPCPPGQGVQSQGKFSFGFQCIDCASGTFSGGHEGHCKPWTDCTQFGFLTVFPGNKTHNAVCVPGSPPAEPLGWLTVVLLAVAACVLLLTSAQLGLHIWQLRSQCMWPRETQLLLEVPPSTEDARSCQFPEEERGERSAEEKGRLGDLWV
Description: as §1, §2

hCD137-muFc [4] = biological target: T4, hCD137-muFc (human; mouse, UniProt Q07011 24-186); experiment: SPR, BIAcore X100; scFv captured by anti-hFc on a CM5 chip, CD137-muFc as analyte 1000-31.6 nM; 1:1 Langmuir model
T4 construct: range 1-186; It states no cleavage site; Made in HEK293 and purified on protein A; also called recombinant human CD137; not shown: mouse IgG1-Fc (muFc) domain, residues 98-324 of UniProt P01868
Description: (§3) The binding kinetics of anti-hCD137 C2scFv and C14 scFv antibodies against the recombinant human CD137 were measured by surface plasmon resonance (SPR) process using a BIAcore X100 instrument. Anti-hFc antibody (not cross-identifying mouse Fc) was conjugated on CM5 chip, C2 scFv or C14 scFv was diluted to 5 nM with running buffer and captured as a ligand by the antibody on the chip. CD137-muFc was diluted with running buffer to 1000-31.6 nM, diluted twice to a total of 6 concentrations. The injection time was 180 s, the dissociation time was 1800 s and the regeneration time was 60 s. The running buffer was HBS-EP+, and the regeneration buffer was 10 mM glycine-HCl (pH 2.0). The association rate (Kₒₙ) and the dissociation rate (Koff) were calculated using a simple one-to-one Languir binding model (BIAcore Evaluation Software version 3.2). The equilibrium dissociation constant (KD) was calculated as the ratio of Koff/Kₒₙ.

hCD137-muFc [5] = biological target: T4, hCD137-muFc; experiment: SPR, BIAcore X100; anti-hFc on a CM5 chip, CD137-muFc as analyte 100-3.16 nM; 1:1 Langmuir model
Description: as §3, with “antibody” for “C2scFv and C14 scFv antibodies”, “CD137-muFc” for “C2 scFv or C14 scFv”, “nM (C14Mab) or 100-3.16 nM (C14 Mab new),” for “nM,”

RhCD137-muFc = biological target: T5, RhCD137-muFc (rhesus monkey; mouse); experiment: ELISA, RhCD137-muFc coated at 5 ug/mL, antibody titrated 3-fold, goat anti-hIgG-HRP, OD450-650
T5 construct: Residues 1-186 as stated; no signal peptide cleavage site is stated; also called Rhesus monkey CD137; CD137 of rhesus monkey
T5 chain: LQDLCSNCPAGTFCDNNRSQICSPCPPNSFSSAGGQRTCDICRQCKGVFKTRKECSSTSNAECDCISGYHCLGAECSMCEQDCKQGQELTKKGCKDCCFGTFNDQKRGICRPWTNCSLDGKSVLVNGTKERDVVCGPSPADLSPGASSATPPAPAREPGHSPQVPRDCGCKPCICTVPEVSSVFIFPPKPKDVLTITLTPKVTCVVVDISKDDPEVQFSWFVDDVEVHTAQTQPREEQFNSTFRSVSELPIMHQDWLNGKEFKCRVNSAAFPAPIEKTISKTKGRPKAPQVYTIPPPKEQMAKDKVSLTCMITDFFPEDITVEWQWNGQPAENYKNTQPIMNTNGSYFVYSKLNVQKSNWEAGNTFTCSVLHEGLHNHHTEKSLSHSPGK
Description: RhCD137-muFc was diluted to 5 μg/mL 100 μL/well, with coating buffer (50 mM Na₂CO₃, NaHCO₃ pH 9.6), overnight at 4° C. After washing, the plates were blocked with 3% BSA-PBS for 1 h at 37° C. Anti-hCD137 14#mAbnew antibodies were respectively diluted from 2000 ng/mL and were diluted 3-fold, with the diluent (1% BSA-PBS) as a control, and incubated for 2 h at 37° C. Goat anti-hIgG-HRP conjugated was added and incubated for 1 h at 37° C. The soluble one-component TMB substrate developing solution was added, and the developing was performed in dark at room temperature for 5-10 min. 2N H₂SO₄ 50 μL/well was added to terminate the color development reaction. The OD_{450 nm-650 nm} values were read on MD Spectra Max Plus 384 microplate reader, and SoftMax Pro v5.4 was used for data processing and diagraph analysis, with the results shown in FIG. 8, in which it can be seen that anti-hCD137 14#mAb new may bind to CD137 of rhesus monkey.

binding result [1]: no binding | binding result [2]: no binding | binding result [3]: no binding | Kd (hCD137-muFc [4]): 11.6 nM | koff (hCD137-muFc [4]): 0.000128 s⁻¹ | kon (hCD137-muFc [4]): 11000 M⁻¹ s⁻¹
B1: anti-hCD137 C2 scFv (scFv)
scFv: EVQLVESGGGLVQPGGSLRLSCAASGFTVSDYYMNWIRQAPGKGLEWVSYISSSASGSTIYYADSVKGRFTISRDNANNSLYLHMDSLRAEDTAIYFCARVVPAGSGWRWFDPWGQGTLVTVSSGGGGSGGGGSGGGGSQSVLIQPPSASGSPGQSVTISCTGISSDVGAYDYVSWYQQHPGKVPKLMIYEVSKRPSGVPDRFSGSKSGDTASLTVSGLQAEDEADYYCSSHAGSNNFYVFGTGTKLTVL
notes: The junction between scFv and Fc is not described; not shown: human IgG1-Fc domain, residues 104-330 of UniProt P01857

Kd (hCD137-muFc [5]): 2.68 nM | koff (hCD137-muFc [5]): 0.000907 s⁻¹ | kon (hCD137-muFc [5]): 338000 M⁻¹ s⁻¹ | binding result (RhCD137-muFc): binds
B2: anti-CD137 14#mAb new (antibody, V domains shown)
VH: QVQLQQSGPGLVKPSQTLSLTCAISGDSVSSNSAAWNWIRQSPSRGLEWLGRTYYRSKWYNDYAPSVESRITINPDTSKNQFSLQLSSVTPEDTAVYYCARDPPYVLSTFDIWGQGTMVTVSS
VL: NFMLTQPPSVSESPGKTVTISCTRSSGNIASFYVQWFQQRPGSSPTTVIYDDDQRPSGVPDRFSGSIDRSSNSASLTISGLTTDDEADYYCQSYDINKVIFGGGTKLTVL
notes: L50 E to D, L93 T to I and L95 N to K against C14; IgG4 / lambda; also called C14 mAbnew; C14 Mab new; not shown: human IgG4 constant region, UniProt P01861 (same method as C14mAb); human lambda light chain constant region, UniProt A0M8Q6 (same method as C14mAb)

binding result [1]: no binding | binding result [2]: no binding | binding result [3]: no binding
B3: anti-hCD137 C14 mAb (antibody, human IgG4, V domains shown)
VH: B2 VH
VL: B2 VL with D51E, I96T, K98N
notes: domain: constant region; Human IgG4 / lambda antibody made in HEK293; also called anti-CD137 14#mAb; not shown: human immunoglobulin lambda light chain constant region, UniProt A0M8Q6

binding result [1]: no binding | binding result [2]: no binding | binding result [3]: no binding | Kd (hCD137-muFc [4]): 23.8 nM | koff (hCD137-muFc [4]): 0.000263 s⁻¹ | kon (hCD137-muFc [4]): 11200 M⁻¹ s⁻¹
B4: anti-hCD137 C14 scFv (scFv)
scFv: QVQLQQSGPGLVKPSQTLSLTCAISGDSVSSNSAAWNWIRQSPSRGLEWLGRTYYRSKWYNDYAPSVESRITINPDTSKNQFSLQLSSVTPEDTAVYYCARDPPYVLSTFDIWGQGTMVTVSSGGGGSGGGGSGGGGSNFMLTQPPSVSESPGKTVTISCTRSSGNIASFYVQWFQQRPGSSPTTVIYEDDQRPSGVPDRFSGSIDRSSNSASLTISGLTTDDEADYYCQSYDTNNVIFGGGTKLTVL
notes: The junction between scFv and Fc is not described; also called anti-CD137 14#ScFv; not shown: human IgG1-Fc domain, residues 104-330 of UniProt P01857
